Reference: the nanobody polyreactivity screen of Harvey et al. (2022)

Assay: yeast display, Sf9 membrane polyspecificity reagent, FACS + sequencing; frameworks hold sequencing errors
How it was run: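 After 36–48 hours of galactose induction, yeast (Saccharomyces cerevisiae BJ5465) displaying a synthetic nanobody library were stained at 4 °C for 1 hour with 10% biotinylated, detergent-solubilized Sf9 membrane reagent. Streptavidin microbeads enriched the stained cells before FACS sorting into low and high (top ~1%) gates on anti-HA and streptavidin fluorescence. Each clone's polyreactivity label reflects its gate of origin.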

Sequence | polyreactivity (PSR sort gate)
QFQLVESGGGLVQAGGSLRLSCAASGSTFDINDMGWYRQAPGKERELVAAITTSGASTYYADSVKGRFTISRDNAKNTVYLQMNSLKPEETAVSYCAADCLSYVWYVWYDYWGQGTKVTVSS | low polyreactivity
QFQLVESGGGLVQAGGSLRLSCAASGSTFEKNAMGWYRQAPGKERDLVDAISNGVSTYYADSVKGRFTISRDNAKNSVFLQMISLKPEDTAVYFCAADLFFGAETVYYDKFDYWGQGTKVTVSS | low polyreactivity
QFQLVESGGGLVQAGGSLRLSCAASGSTFGGNAMGWYRQAPGKERELVAAIDSGGGTNYADSVKGRFTISRDNAKNTVYLQMNSLKPEDSAVYYCNADWAVRSTQNSSSGHDYWGQGTQVTVSS | low polyreactivity
QFQLVESGGGLVQAGGSLRLSCAASGSTFGYYAMGWYSQAPGKERELVAAITSTGRTKYADSVKGRFTISRDNAKNSVYLQMNSLKPEDTAVYYCAADIWGQGTQVTVSS | high polyreactivity
QFQLVESGGGLVQAGGSLRLSCAASGSTFPHYTMGWYRQAPGKERELVAAIRRSAGSTYYADSVKGRFTISRDNAKNTVYLQMNSLKPEDTAVYYCNTRQRPPYLVKLNYWGQGTQVTVSS | high polyreactivity
QFQLVESGGGLVQAGGSLRLSCAASGSTFRGYVMGWYRQAPGKERELVAAITFSSGSTYYADSVKGRFTISRDNAKNTVYLQMNSLKPEDTAVYYCAAVGPYYRDYYYWGQGTQVTVSS | high polyreactivity
QFQLVESGGGLVQAGGSLRLSCAASGSTFWVYAMGWYRQAPGKERDLVAAITFRTTSTYYADSVKGRFTISRDTAKNSVSLQLKSLIPDDNAVYFCAATEYYATEYDYWGQCTQVTVSS | low polyreactivity
QFQLVESGGGLVQAGGSLRLSCAASGSTFYPNSMGWYRQAPGKEMELVAAISSGGSTSYADSVKGRFTISRDNAKNTVYLQMNSLKPEDTAVYYCNASSPGAVPVYDYDYWGQGTQVTVSS | low polyreactivity
QFQLVESGGGLVQAGGSLRLSCAASGYIFGRYAMGWYRQPPGKERELVAAISSTGDSTYYADSVKGRFTISRDYAKNTVYLQMNSQKPEDTAVYYCNAVVPRYSYGRYYYWGQGTQVTVSS | high polyreactivity
QFQLVESGGGLVQAGGSLRLSCAATGRTFYIYSMGWYRQAPGKERELVAAITSGGSTSYADSVKGRFTISRDNAKNTVYLQMNSLKPEDTAVYYCAADQYTYWFGYDYWGQGTQVTVSS | low polyreactivity
QFQLVESGGGLVQAGGSLRLSCAAYGFTFYAYTMGWYRQAPGKERELVAAIRTGSSTYYADSVKGRFTISRDNAKNTVYLQMNSMKPQDTAVYYCAAPRWRRPYRYDYWGQGTQVTVSS | high polyreactivity
QFQLVESGGGLVQAGGSLRLSSAASGSTFYYNAMGWYRQAPGKERELVAVITSGVSTYYADSVKGRFTISRDNAKNTVYLQMNSLKPVDTAVYYCAADLYRPYEYQLDYWGHGTQVTVSS | low polyreactivity
QFQLVESGGGLVQAGGSLRLSSAPSGIIFPYYAMGWYRQAPGKERELVAAISRTGSTYYADSVKGRFTISRDNAKNTVYLQMNRLNPEVTAVYYCAARTYYSQGTSSVSLQQYGYWGEGTQVTVSS | low polyreactivity
QFQLVESGGGLVQAGGSLRVSSAASGITLPYYAMGWYRQAPGKDRELVAGISSRGGSTYYADSVKGRFTISRDNAKNTVYLQMNSLKPEDTAVYYCAAKVASTRLGPAYGYWGQGTQVTVSS | high polyreactivity
QFQLVESGGGLVQARGSLRLSCAASGRIFSWYAMGWYRQAPGKETELVAGLNRNGGSTYYPDSVKGRFTISRDNAKNTVYLQMNSQKPEDTAVYYCAKGQYYYTGDYDYWGQGTQVTVSS | high polyreactivity
QFQLVESGGGLVQARGSLRLSCAASGSTFSQYAMGWYRQAPGKERELVAAITTSDGTTNYADSVKGRFTISRDNAKNTVFLQMNILQPEDTAVYYCNNEYFYYSFGYWGQGTQVTVSS | low polyreactivity

Sequence | polyreactivity (PSR sort gate)
QFQLVESGGGVVQAGGSLRLSCAASGYTFYIYARGWYRQAPWKERELVAAISWTDGSTYYADSVKGRFTISRDNAKNTVYLQMNSLKPEDTAVYYCAKTSLYAGAKEYDYWGQGTQVTVSS | low polyreactivity
QFQLVESGGRLVQAGGSLRLSCAASGFTFNRYAMGSYRQAPGKGREFVAAITRRGGSTYYADSVKGRFTISRDNAKNTVYLQMNSLKPEDTAVYYCNVKPSARGSPLYDYWGQGTQVTVSS | high polyreactivity
QFQLVESGRGLVQAGGSLRLSCASSGSTQKYAMGWYRQAPRKERELVAAIRRTGGSTYYADSVKGRFKISRDNAKNTVYLQMNSLKPEDTAVYYCAAYIWVAESYDWGQGTQVTVSS | low polyreactivity
QFQLVESRGGLDQAVGSLRLSCAASGFIFAGYVMGLYRQAPGQERELVAGISNSGDNTHYADSVKGRFTISRDNAKNTDYLQMNSLKPEDTAVYYCAAVEQHLAGDDFYSYYYWGQGTQVTLSS | low polyreactivity
QFQLVETGGGLVQAGGSLRLSCAASGITFVRYAMGWYSQAPGKERELVAGISRGGSTNYADSVKGRFTISRDNAKNTVYLQMNSLKPEDTAVYYCNRANSFFDTHTLQFYYWGQGTQVTVSS | high polyreactivity
QGHLVESGGGLVQAGGSRRLSCAASGRIFSPYALGWSRQGPGKERELVAAISSDDGITYYADSVKRRFTISRDNAKNTVYFQMNSLKPEDTAVYYCAADSGTRPAGDYWGQGTQVTVSS | low polyreactivity
QGQHAESGGGLVQAGGSLRLTCAASGFTFVYYPMGWYRQATGKERELVAAISGRGGSTYYADSVKGRFTISRDNAKNTVFLQMNSMKPEDTAVYYCAADAYESGNWEANGYWGQGTQVSVSS | low polyreactivity
QGQHVESGGGLVQAGGSLPLSCAASGFIFNLYAMGWSRQAPGKERELVAAISSGGGTSYADSVKGRFTISRDNAKNTVYLQMNTLKPEDTADYYCAARAWYRVSAYDYWGQGTQVTVSS | high polyreactivity
QGQHVESGGGLVQAGGSLRLSCAASGNILASNGMGWYRQAPGKERELVAAITFSGDTTYYADSVKGRFTISRDNAKNTVYLQMNSLKPEDTAVYYCNDGSFIVNGGYDGDYWGQGTQVTLSS | low polyreactivity
QGQLEESGGGLVQAGGSLRLSCAASGFTFYDNAMGWYRQAPGKERELVAAISWSGGSTYADSVKGRFTISRDNAKNTVYLLMNSLKPEDTAVYYCNADAWLASGYRYDYWGQGTQVTVSA | low polyreactivity
QGQLGESGGGLVQAGGSLRLSCAATGFTSYVYAMGWYRQAPGKERELVAAISLRTASTYYADSVKGRFTISRDNAKNTVYLQMTSLKPEDTAVYDCALGRETYRYAYRLNYWGQGTQVTLSS | high polyreactivity
QGQLVESCGCLVQAGGSLRLSCAASGSTFVVYDMGWYRQAPGKERELVAAITWSGGSTYYADSVKGRFTISRDNAKNTVYLQMNSLKPEDTAVYYCNKVTWHQGHDYWGQGTQVTVSS | low polyreactivity
QGQLVESGGCLVQAGGSLRLSCAASGSIFSENTMGWYRQAPGKKRELVADITSGGSTNYADSVKGRFTSSRDNAKYTVYLQMNSLIPEDTEVYYCAADYNGEYDYWGQGTLVTVSS | low polyreactivity
QGQLVESGGGFVQEGGSLRLSCAASRSIFRLYAMGWYRQAPGKEREFVARLRWRGGSTNYADSVKGRFTISRDNAKKTVYLQMNSLKPEDTAVYYCNARGRSGGGRYDYWGQGTQVTVSS | high polyreactivity
QGQLVESGGGLDQAGGSLRLSCAASGSIFHGNAMGWYRQAPGKERELVAVISDGGYTDYADSVKGRFTISRDNAKNTVYLQMNSLKPEDTAGYYCNADYDTQYFYRNPIYYLSGYDYRGQGTQVTVSS | low polyreactivity
QGQLVESGGGLFQAGASLRLSCAASGITFYDNAMGLYRQAPGKERELVAGISYDGDSTYADSVKGRFTISRDNAKNTVYLQMNSLKPEDTAVYYCAALCPYDWLWAGDYWGQGTQVTVSS | low polyreactivity
